PMC3845372

Biological target: RecA (RecAEc) (Escherichia coli, UniProt P0A7G6 2-353)
Experiment: fluorescence anisotropy

Sequence of RecA (RecAEc) (P0A7G6 2-353): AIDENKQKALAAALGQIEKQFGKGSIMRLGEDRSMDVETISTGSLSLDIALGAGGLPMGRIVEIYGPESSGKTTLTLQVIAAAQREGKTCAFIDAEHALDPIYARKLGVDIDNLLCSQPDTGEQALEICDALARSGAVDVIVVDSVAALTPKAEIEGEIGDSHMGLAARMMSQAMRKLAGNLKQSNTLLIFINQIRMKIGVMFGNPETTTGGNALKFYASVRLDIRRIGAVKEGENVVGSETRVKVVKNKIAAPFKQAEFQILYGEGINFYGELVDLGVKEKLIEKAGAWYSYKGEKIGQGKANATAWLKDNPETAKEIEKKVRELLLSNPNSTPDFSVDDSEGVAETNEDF

Row | Binder | binding result | Kd
1 | GGGTGGGTTGGGTGGG (structured_DNA) [dimeric pilE G4 (NG16 core)] | no binding | –
2 | TTTTTTTTTTTTTTTT (ssDNA) [oligo dT16] | – | 640 ± 260 nM
